Measurements taken from US8685665 (CHEMO SERO THERAPEUTIC RESEARCH INSTITUTE, dated 2014).

T1: FRETS-VWF73, P04275
T1 chain: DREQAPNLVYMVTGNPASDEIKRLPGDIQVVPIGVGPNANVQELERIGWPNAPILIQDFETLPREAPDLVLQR


Experiments:
FRETS-VWF73, P04275 = biological target: T1, FRETS-VWF73, P04275
[1] = biological target: T2, von Willebrand factor derived from human plasma (human, UniProt P04275 764-2813); experiment: ELISA, plasma VWF immobilized on plate, relative to wild type W688X
T2 construct: mature; also called VWF; natural substrate VWF
Description: Each of the purified mutants of Example 3 was evaluated for their binding ability to VWF derived from human plasma immobilized on ELISA plate as described in Non-patent reference 8. The concentration was normalized by sandwich ELISA using the anti-human ADAMTS-13 rabbit polyclonal antibody and an HRP labeled form of the anti-FLAGM2 murine monoclonal antibody (SIGMA CORPORATION) as described above and the VWF binding ability per unit concentration was quantified. Finally, the mutants were evaluated for a relative activity as compared to the specific activity of wild type W688X with no alanine substitution, the specific activity of which is 1.

[2] = biological target: immunoglobulin G (IgG) fractions isolated from acquired TTP patients

| Binder | cleaving activity to FRETS-VWF73, relative activity against wild type W688X (FRETS-VWF73, P04275) | binding result [1] | cleaving activity to FRETS-VWF73 per 1 min (ΔFU/min) with and without patient antibodies [2] |
| --- | --- | --- | --- |
| ADAMTS-13W688X mutant R349A (enzyme, human, UniProt Q76LX8 75-688, looked up, Disintegrin-like domain mutant; also called R349(11); not shown: C-terminal FLAG tag) AAGGILHLELLVAVGPDVFQAHQEDTERYVLTNLNIGAELLRDPSLGAQFRVHLVKMVILTEPEGAPNITANLTSSLLSVCGWSQTINPEDDTDPGHADLVLYITRFDLELPDGNRQVRGVTQLGGACSPTWSCLITEDTGFDLGVTIAHEIGHSFGLEHDGAPGSGCGPSGHVMASDGAAPRAGLAWSPCSRRQLLSLLSAGRARCVWDPPRPQPGSAGHPPDAQPGLYYSANEQCRVAFGPKAVACTFAREHLDMCQALSCHTDPLDQSSCSALLVPLLDGTECGVEKWCSKGRCRSLVELTPIAAVHGRWSSWGPRSPCSRSCGGGVVTRRRQCNNPRPAFGGRACVGADLQAEMCNTQACEKTQLEFMSQQCARTDGQPLRSSPGGASFYHWGAAVPHSQGDALCRHMCRAIGESFIMKRGDSFLDGTRCMPSGPREDGTLSLCVSGSCRTFGCDGRMDSQQVWDRCQVCGGDNSTCSPRKGSFTAGRAREYVTFLTVTPNLTSVYIANHRPLFTHLAVRIGGRYVVAGKMSISPNTTYPSLLEDGRVEYRVALTEDRLPRLEEIRIWGPLQEDADIQVYRRYGEEYGNLTRPDITFTYFQPKPRQAWVW | led to the significantly reduced enzyme activity | binds | – |
| ADAMTS-13W688X mutant D635A (protein) AAGGILHLELLVAVGPDVFQAHQEDTERYVLTNLNIGAELLRDPSLGAQFRVHLVKMVILTEPEGAPNITANLTSSLLSVCGWSQTINPEDDTDPGHADLVLYITRFDLELPDGNRQVRGVTQLGGACSPTWSCLITEDTGFDLGVTIAHEIGHSFGLEHDGAPGSGCGPSGHVMASDGAAPRAGLAWSPCSRRQLLSLLSAGRARCVWDPPRPQPGSAGHPPDAQPGLYYSANEQCRVAFGPKAVACTFAREHLDMCQALSCHTDPLDQSSCSRLLVPLLDGTECGVEKWCSKGRCRSLVELTPIAAVHGRWSSWGPRSPCSRSCGGGVVTRRRQCNNPRPAFGGRACVGADLQAEMCNTQACEKTQLEFMSQQCARTDGQPLRSSPGGASFYHWGAAVPHSQGDALCRHMCRAIGESFIMKRGDSFLDGTRCMPSGPREDGTLSLCVSGSCRTFGCDGRMDSQQVWDRCQVCGGDNSTCSPRKGSFTAGRAREYVTFLTVTPNLTSVYIANHRPLFTHLAVRIGGRYVVAGKMSISPNTTYPSLLEDGRVEYRVALTEARLPRLEEIRIWGPLQEDADIQVYRRYGEEYGNLTRPDITFTYFQPKPRQAWVW | – | – | depending on patient antibody, K608A, E634A and D635A had a sufficient enzymatic activity |
| ADAMTS-13W688X mutant E634A (protein) AAGGILHLELLVAVGPDVFQAHQEDTERYVLTNLNIGAELLRDPSLGAQFRVHLVKMVILTEPEGAPNITANLTSSLLSVCGWSQTINPEDDTDPGHADLVLYITRFDLELPDGNRQVRGVTQLGGACSPTWSCLITEDTGFDLGVTIAHEIGHSFGLEHDGAPGSGCGPSGHVMASDGAAPRAGLAWSPCSRRQLLSLLSAGRARCVWDPPRPQPGSAGHPPDAQPGLYYSANEQCRVAFGPKAVACTFAREHLDMCQALSCHTDPLDQSSCSRLLVPLLDGTECGVEKWCSKGRCRSLVELTPIAAVHGRWSSWGPRSPCSRSCGGGVVTRRRQCNNPRPAFGGRACVGADLQAEMCNTQACEKTQLEFMSQQCARTDGQPLRSSPGGASFYHWGAAVPHSQGDALCRHMCRAIGESFIMKRGDSFLDGTRCMPSGPREDGTLSLCVSGSCRTFGCDGRMDSQQVWDRCQVCGGDNSTCSPRKGSFTAGRAREYVTFLTVTPNLTSVYIANHRPLFTHLAVRIGGRYVVAGKMSISPNTTYPSLLEDGRVEYRVALTADRLPRLEEIRIWGPLQEDADIQVYRRYGEEYGNLTRPDITFTYFQPKPRQAWVW | – | – | depending on patient antibody, K608A, E634A and D635A had a sufficient enzymatic activity |
| ADAMTS-13W688X mutant R498A (enzyme, human, UniProt Q76LX8 75-688, looked up, Cysteine-rich domain mutant; also called R498(29); not shown: C-terminal FLAG tag) AAGGILHLELLVAVGPDVFQAHQEDTERYVLTNLNIGAELLRDPSLGAQFRVHLVKMVILTEPEGAPNITANLTSSLLSVCGWSQTINPEDDTDPGHADLVLYITRFDLELPDGNRQVRGVTQLGGACSPTWSCLITEDTGFDLGVTIAHEIGHSFGLEHDGAPGSGCGPSGHVMASDGAAPRAGLAWSPCSRRQLLSLLSAGRARCVWDPPRPQPGSAGHPPDAQPGLYYSANEQCRVAFGPKAVACTFAREHLDMCQALSCHTDPLDQSSCSRLLVPLLDGTECGVEKWCSKGRCRSLVELTPIAAVHGRWSSWGPRSPCSRSCGGGVVTRRRQCNNPRPAFGGRACVGADLQAEMCNTQACEKTQLEFMSQQCARTDGQPLRSSPGGASFYHWGAAVPHSQGDALCRHMCRAIGESFIMKAGDSFLDGTRCMPSGPREDGTLSLCVSGSCRTFGCDGRMDSQQVWDRCQVCGGDNSTCSPRKGSFTAGRAREYVTFLTVTPNLTSVYIANHRPLFTHLAVRIGGRYVVAGKMSISPNTTYPSLLEDGRVEYRVALTEDRLPRLEEIRIWGPLQEDADIQVYRRYGEEYGNLTRPDITFTYFQPKPRQAWVW | led to the significantly reduced enzyme activity | binds | – |
